Assay results from FireProtDB (doi:10.1139/o86-132).

Conditions: Aspergillus oryzae (strain ATCC 42149 / RIB 40), pH 7, 25 °C, GdnHCl, CD, cacodylate 0.013 M, reversible: yes, whole UniProt chain shown

B1: Guanyl-specific ribonuclease T1 wild type, P00651 (protein)
chain: MMYSKLLTLTTLLLPTALALPSLVERACDYTCGSNCYSSSDVSTAQAAGYQLHEDGETVGSNSYPHKYNNYEGFDFSVSSPYYEWPILSSGDVYSGGSPGADRVVFNENNQLAGVITHTGASGNNFVECT
For B1, the denaturant m value ((NH4)2SO4 0.15 M) was 2.85 kcal/mol/M, the “denaturant midpoint (higher = more stable)” value (“denaturant midpoint” for short) ((NH4)2SO4 0.15 M) was 3.16 M and the unfolding free energy ((NH4)2SO4 0.15 M) was 9.6 kcal/mol. The denaturant m value ((NH4)2SO4 0.30 M) was 2.9 kcal/mol/M, the “denaturant midpoint” value ((NH4)2SO4 0.30 M) was 3.37 M and the unfolding free energy ((NH4)2SO4 0.30 M) was 10.3 kcal/mol. The denaturant m value (CsCl 0.49 M) was 3.18 kcal/mol/M, the “denaturant midpoint” value (CsCl 0.49 M) was 2.81 M and the unfolding free energy (CsCl 0.49 M) was 8.9 kcal/mol. The denaturant m value (KCl 0.1 M) was 3.04 kcal/mol/M, the “denaturant midpoint” value (KCl 0.1 M) was 2.9 M and the unfolding free energy (KCl 0.1 M) was 8.8 kcal/mol. The denaturant m value (Li2SO4 0.20 M) was 2.82 kcal/mol/M, the “denaturant midpoint” value (Li2SO4 0.20 M) was 3.16 M and the unfolding free energy (Li2SO4 0.20 M) was 9.6 kcal/mol. For the same protein, the denaturant m value (Li2SO4 0.40 M) was 2.82 kcal/mol/M, the “denaturant midpoint” value (Li2SO4 0.40 M) was 3.35 M and the unfolding free energy (Li2SO4 0.40 M) was 10.2 kcal/mol. The denaturant m value (LiBr 0.76 M) was 3.14 kcal/mol/M, the “denaturant midpoint” value (LiBr 0.76 M) was 2.15 M and the unfolding free energy (LiBr 0.76 M) was 6.55 kcal/mol. The denaturant m value (LiBr 1.52 M) was 3.41 kcal/mol/M, the “denaturant midpoint” value (LiBr 1.52 M) was 1.48 M and the unfolding free energy (LiBr 1.52 M) was 4.51 kcal/mol. For the same protein, the denaturant m value (LiCi 0.50 M) was 2.71 kcal/mol/M, the “denaturant midpoint” value (LiCi 0.50 M) was 2.75 M and the unfolding free energy (LiCi 0.50 M) was 8.36 kcal/mol. The denaturant m value (LiCi 0.99 M) was 3.13 kcal/mol/M, the “denaturant midpoint” value (LiCi 0.99 M) was 2.57 M and the unfolding free energy (LiCi 0.99 M) was 7.8 kcal/mol. For the same protein, the denaturant m value (LiSCN 0.09 M) was 3.05 kcal/mol/M, the “denaturant midpoint” value (LiSCN 0.09 M) was 2.72 M and the unfolding free energy (LiSCN 0.09 M) was 8.27 kcal/mol. The denaturant m value (LiSCN 0.34 M) was 2.87 kcal/mol/M, the “denaturant midpoint” value (LiSCN 0.34 M) was 2.06 M and the unfolding free energy (LiSCN 0.34 M) was 6.25 kcal/mol. For the same protein, the denaturant m value (LiSCN 0.69 M) was 3.08 kcal/mol/M, the “denaturant midpoint” value (LiSCN 0.69 M) was 1.34 M and the unfolding free energy (LiSCN 0.69 M) was 4.08 kcal/mol. For the same protein, the denaturant m value (NH4Cl 0.45 M) was 3.02 kcal/mol/M, the “denaturant midpoint” value (NH4Cl 0.45 M) was 2.83 M and the unfolding free energy (NH4Cl 0.45 M) was 8.5 kcal/mol. The denaturant m value (Na2SO4 0.15 M) was 2.83 kcal/mol/M, the “denaturant midpoint” value (Na2SO4 0.15 M) was 3.12 M and the unfolding free energy (Na2SO4 0.15 M) was 9.49 kcal/mol. For the same protein, the denaturant m value (NaBr 0.50 M) was 3.42 kcal/mol/M, the “denaturant midpoint” value (NaBr 0.50 M) was 2.53 M and the unfolding free energy (NaBr 0.50 M) was 7.7 kcal/mol. The denaturant m value (NaBr 0.99 M) was 2.97 kcal/mol/M, the “denaturant midpoint” value (NaBr 0.99 M) was 2.27 M and the unfolding free energy (NaBr 0.99 M) was 6.91 kcal/mol. For the same protein, the denaturant m value (NaSCN 0.25 M) was 3.11 kcal/mol/M, the “denaturant midpoint” value (NaSCN 0.25 M) was 2.39 M and the unfolding free energy (NaSCN 0.25 M) was 7.27 kcal/mol. The denaturant m value (NaSCN 0.49 M) was 2.93 kcal/mol/M, the “denaturant midpoint” value (NaSCN 0.49 M) was 1.91 M and the unfolding free energy (NaSCN 0.49 M) was 5.8 kcal/mol. The denaturant m value (RbCl 0.50 M) was 2.89 kcal/mol/M, the “denaturant midpoint” value (RbCl 0.50 M) was 2.89 M and the unfolding free energy (RbCl 0.50 M) was 8.4 kcal/mol.
